# Laboratory results reported in the RNAGym collection of RNA variant scans (doi:10.7554/elife.80360).
# B1: CPEB3 Ribozyme (parent)
# chain: GGGGGCCACAGCAGAAGCGUUCACGUCGCGGCCCCUGUCAGAUUCUGGUGAAUCUGCGAAUUCUGCUGU
# Variants of: B1
# Assay: self-cleavage, relative activity (ratio to wild type); higher = more cleavage; co-transcriptional
row,Variant,self-cleavage
1,GGGGGCCACAGCAUAAGCGUUCGCGUCGCGGCCCCUGUCAGAUUCUGGUGAAUCUGCGAAUUCUGCUGU [G14U A23G],0.452
2,GGGGGCCACAGCAUAAGCGUUCCCGUCGCGGCCCCUGUCAGAUUCUGGUGAAUCUGCGAAUUCUGCUGU [G14U A23C],0.7
3,GGGGGCCACAGCAUAAGCGUUCUCGUCGCGGCCCCUGUCAGAUUCUGGUGAAUCUGCGAAUUCUGCUGU [G14U A23U],0.986
4,GGGGGCCACAGCACAAGCGUUCACGUCGCGGCCCCUGUCAGAUUCUGGUGAAGCUGCGAAUUCUGCUGU [G14C U53G],0.397
5,GGGGGCCACAGCAUGAGCGUUCACGUCGCGGCCCCUGUCAGAUUCUGGUGAAUCUGCGAAUUCUGCUGU [G14U A15G],0.843
6,GGGGGCCACAGCACAAGCGUUCACGUCGCGGCCCCUGUCAGAUUCUGGUGAAUCUGCGAAAUCUGCUGU [G14C U61A],0.346
7,GGGGGCCACAGCACAAGCGUUCACGUCGCGGCCCCUGUCAGAUUCUGGUGAAUCUGCGAAGUCUGCUGU [G14C U61G],0.266
8,GGGGGCCACAGCAUAAGCGUUCACGUCGCGGCCCCUGUCAGAUUCUGGUGGAUCUGCGAAUUCUGCUGU [G14U A51G],0.842
9,GGGGGCCACAGCAUAAGCGUUCACGUCGCGGCCCCUGUCAGAUUCUGGUGCAUCUGCGAAUUCUGCUGU [G14U A51C],0.61
10,GGGGGCCACAGCAUAAGCGUUCACGUCGCGGCCCCUGUCAGAUUCUGGUGAUUCUGCGAAUUCUGCUGU [G14U A52U],0.767
11,GGGGGCCACAGCAUAAGCGUUCACGUCGCGGCCCCUGUCAGAUUCUGGUGACUCUGCGAAUUCUGCUGU [G14U A52C],0.715
12,GGGGGCCACAGCAUAAGCGUUCACGUCGCGGCCCCUGUCAGAUUCUGGUGAAUCUGCGAGUUCUGCUGU [G14U A60G],0.4
13,GGGGGCCACAGCAUAAGCGUUUACGUCGCGGCCCCUGUCAGAUUCUGGUGAAUCUGCGAAUUCUGCUGU [G14U C22U],0.15
14,GGGGGCCACAGCAUAAGCGUUAACGUCGCGGCCCCUGUCAGAUUCUGGUGAAUCUGCGAAUUCUGCUGU [G14U C22A],0.15
15,GGGGGCCACAGCAUAAGCGUUCACGUCGCGGCCCCUGUCAGCUUCUGGUGAAUCUGCGAAUUCUGCUGU [G14U A42C],0.523
16,GGGGGCCACAGCAUAAGCGUUCACGUCGCGGCCCCUGUCAGUUUCUGGUGAAUCUGCGAAUUCUGCUGU [G14U A42U],0.425
17,GGGGGCCACAGCACAAGCGUUCACGUCGCGGCCCCUGUCAGAUUCUGGUGAAUCUGCGAAUUCUGCCGU [G14C U67C],0.443
18,GGGGGCCACAGCACAAGCGUUCACGUCGCGGCCCCUGUCAGAUUCUGGUGAAUCUGCGAAUUCUGCAGU [G14C U67A],0.468
19,GGGGGCCACAGCACAAGCGUUCACGUCGCGGCCCCUGUCAGAUUCUGGUGAAUCUGCGAAUUCUGCGGU [G14C U67G],0.549
20,GGGGGCCACAGCAUAUGCGUUCACGUCGCGGCCCCUGUCAGAUUCUGGUGAAUCUGCGAAUUCUGCUGU [G14U A16U],0.363

row,Variant,self-cleavage
1,GGGGGCCACAGCAUACGCGUUCACGUCGCGGCCCCUGUCAGAUUCUGGUGAAUCUGCGAAUUCUGCUGU [G14U A16C],0.123
2,GGGGGCCACAGCACAAGCGUUCACGUCGCGGCCCCUGUCAGAUUCUGGUGAAUCUGCGAAUGCUGCUGU [G14C U62G],0.368
3,GGGGGCCACAGCACAAGCGUUCACGUCGCGGCCCCUGUCAGAUUCUGGUGAAUCUGCGAAUACUGCUGU [G14C U62A],0.394
4,GGGGGCCACAGCACAAGCGUUCACGUCGCGGCCCCUGUCAGAUUCUGGUGAAUCUGCGAAUCCUGCUGU [G14C U62C],0.352
5,GGGGGCCACAGCACAAGCGUUCACGUCGCGGCCCCUGUCAGAUUCUGGUGAAUCCGCGAAUUCUGCUGU [G14C U55C],0.271
6,GGGGGCCACAGCACAAGCGUUCACGUCGCGGCCCCUGUCAGAUUCUGGUGAAUCAGCGAAUUCUGCUGU [G14C U55A],0.22
7,GGGGGCCACAGCAUAAGGGUUCACGUCGCGGCCCCUGUCAGAUUCUGGUGAAUCUGCGAAUUCUGCUGU [G14U C18G],0.0825
8,GGGGGCCACAGCAUAAGUGUUCACGUCGCGGCCCCUGUCAGAUUCUGGUGAAUCUGCGAAUUCUGCUGU [G14U C18U],0.225
9,GGGGGCCACAGCAUAAGAGUUCACGUCGCGGCCCCUGUCAGAUUCUGGUGAAUCUGCGAAUUCUGCUGU [G14U C18A],0.142
10,GGGGGCCACAGCACAAGCGUUCACGUCGCGGCCCCUGUCAGAUUCUGGUGAAUCUGCGAAUUCUGCUGC [G14C U69C],0.968
11,GGGGGCCACAGCACAAGCGUUCACGUCGCGGCCCCUGUCAGAUUCUGGUGAAUCUGCGAAUUCUGCUGG [G14C U69G],0.726
12,GGGGGCCACAGCAUAAGCGUUCAUGUCGCGGCCCCUGUCAGAUUCUGGUGAAUCUGCGAAUUCUGCUGU [G14U C24U],0.137
13,GGGGGCCACAGCAUAAGCGUUCAGGUCGCGGCCCCUGUCAGAUUCUGGUGAAUCUGCGAAUUCUGCUGU [G14U C24G],0.109
14,GGGGGCCACAGCACAAGCGUUCACGUCGCGGCCCCUGUCAGAUUCUGGUGAAUCUGCGAAUUCAGCUGU [G14C U64A],0.432
15,GGGGGCCACAGCACAAGCGUUCACGUCGCGGCCCCUGUCAGAUUCUGGUGAAUCUGCGAAUUCGGCUGU [G14C U64G],0.546
16,GGGGGCCACAGCACAAGCGUUCACGUCGCGGCCCCUGUCAGAUUCUGGUGAAUCUGCGAAUUCCGCUGU [G14C U64C],0.283
17,GGGGGCCACAGCAUAAGCGUUCACGUCGCGGCCCCUGUCUGAUUCUGGUGAAUCUGCGAAUUCUGCUGU [G14U A40U],0.179
18,GGGGGCCACAGCAUAAGCGUUCACGUCGCGGCCCCUGUCGGAUUCUGGUGAAUCUGCGAAUUCUGCUGU [G14U A40G],0.425
19,GGGGGCCACAGCAUAAGCGUUCACGUCGCGGCCCCUGUCAGAUUCUGGUGAAUCUGCGUAUUCUGCUGU [G14U A59U],0.365
